Data published in paper PMC12285911 (2025).

Target: T1, ^FAMFAT10 (GG–FAT10 N-terminally labeled with fluorescein amidite by sortase) (human, 5-FAM on the N terminus (5-FAM conjugated to the N terminus of the peptide …, attached by sortase))
T1 chain: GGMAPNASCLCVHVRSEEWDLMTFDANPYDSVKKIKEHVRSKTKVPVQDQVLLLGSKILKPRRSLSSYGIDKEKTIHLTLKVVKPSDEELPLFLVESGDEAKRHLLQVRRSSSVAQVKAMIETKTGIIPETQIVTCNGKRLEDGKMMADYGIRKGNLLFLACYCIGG
Test: FP

B1: NUB1^Δ1–175 (domain or fragment)
chain: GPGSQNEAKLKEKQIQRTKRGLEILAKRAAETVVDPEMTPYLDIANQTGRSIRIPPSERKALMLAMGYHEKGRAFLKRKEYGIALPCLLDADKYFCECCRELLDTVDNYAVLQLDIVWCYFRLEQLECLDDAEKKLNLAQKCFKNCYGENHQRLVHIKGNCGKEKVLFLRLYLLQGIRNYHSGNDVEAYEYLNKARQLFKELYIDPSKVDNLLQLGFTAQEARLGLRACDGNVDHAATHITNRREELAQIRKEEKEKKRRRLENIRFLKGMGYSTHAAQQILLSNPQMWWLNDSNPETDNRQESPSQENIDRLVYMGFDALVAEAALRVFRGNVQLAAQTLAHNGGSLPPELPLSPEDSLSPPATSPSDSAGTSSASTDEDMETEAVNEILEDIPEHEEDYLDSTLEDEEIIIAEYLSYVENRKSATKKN
Kd: 152 nM
